In article PMC11063404, “Classical and novel properties of Holliday junction resolvase SynRuvC from Synechocystis sp. PCC6803”:

Molecular target: T1, SynRuvC E75A (Synechocystis sp. PCC6803, UniProt Q55506 1-167, E75A)
T1 sequence: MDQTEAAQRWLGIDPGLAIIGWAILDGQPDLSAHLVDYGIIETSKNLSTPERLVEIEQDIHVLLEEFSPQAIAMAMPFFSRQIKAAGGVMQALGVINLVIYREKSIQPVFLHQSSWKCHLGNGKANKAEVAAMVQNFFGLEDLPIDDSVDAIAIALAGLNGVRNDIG
Assay: EMSA; EMSA: 50 nM 5'-FAM DNA, 0-2000 nM protein, 20 mM HEPES pH 7.5, 50 mM NaCl, 1 mM DTT, 10% DMSO, 1% glycerol, no metal listed, 37 C 60 min; 5% native PAGE in 1x TAE
Settings: protein: recombinant; tags: His-SUMO N-terminal, removed (purified as WT); chain copies: 2; label: 5'-FAM on one strand; four-way junction, 13 bp homologous core

B1: 4Jh (structured_DNA)
DNA 1: GCAATTCGATCGTTGACATCTCGCGTGCTCGGTCAATCGGCAGATGCGGAGTGAAGTTCCAACGTTCGGC
DNA 2: CCTGCAGGATGGTAGGACGGCCTCGCAATCCCGATTGACCGAGCACGCGAGATGTCAACGATCGAATTGC
DNA 3: GCCGAACGTTGGAACTTCACTCCGCATCTGCCGATTGACCGAGTGGCGTGTTTCTGGTGGTTCCTAGGTC
DNA 4: GACCTAGGAACCACCAGAAACACGCCACTCGGTCAATCGGGATTGCGAGGCCGTCCTACCATCCTGCAGG
Question: Does B1 bind?
Answer: no binding
